According to patent US12103957B2, “NYESO TCR” (MEDIGENE IMMUNOTHERAPIES GMBH, priority 2018, dated 2024):

Experiments:
Format in all cases: cell-based, human
[1] = tested on: Me1624.38 tumor cell line (HLA-A*02 positive, NY-ESO-1/LAGE-1 positive); experiment: Killing of tumor cells, Annexin V live-cell imaging (IncuCyte ZOOM); settings: TCR-transduced CD8+ T cells, effector-to-target about 4:1
Procedure: (§1) The killing capacity of T11.8-10-17- or benchmark-TCR-transduced CD8^+ T cells (CD8-T11.8-10-17 or CD8 benchmark-TCR) was evaluated by co-culturing with the HLA-A*02 positive NY-ESO-1/LAGE-1 positive tumor cell line Me1624.38 (FIG. 2a). In addition, killing of CD8-T11.8-10-17 was also tested with the HLA-A*02 positive NY-ESO-1/LAGE-1 positive tumor cell line MM415 (FIG. 2b). As a negative control, untransduced CD8^+ enriched PBMC were used as effector cells (CD8 UT) or the HLA-A*02 positive but NY-ESO-1/LAGE-1 negative tumor cell line SK-Me123 was used as target cells. The co-cultures were set-up at an effector-to-target ratio of about 4:1, i.e. 10,000 adherent tumor cells were seeded one day prior to the co-culture and subsequently 40,000 transgenic TCR^+ T cells were added. An increase of red fluorescent target cells (Total Integrated Intensity in GCU×μm^2/Image) that indicates induction of apoptosis of target cells (Annexin V, red), was measured every four hours over a total time period of 67 hours using live-cell monitoring (IncuCyte® ZOOM).

[2] = tested on: MM415 tumor cell line (HLA-A*02 positive, NY-ESO-1/LAGE-1 positive); experiment: as above; settings: TCR-transduced CD8+ T cells, effector-to-target about 4:1
Procedure: as §1

[3] = tested on: SK-Me123 tumor cell line (HLA-A*02 positive, NY-ESO-1/LAGE-1 negative); experiment: as above; settings: antigen-negative target line; effector-to-target about 4:1; 67 hours
Procedure: as §1

MM415 = experiment: IFN-γ ELISA, stimulation by tumor cell lines; settings: transduced CD8+ T cells 40,000, target cells 20,000
Source text: (§2) IFN-γ ELISA was used to assess cytokine secretion upon stimulation of T11.8-10-17-transduced T cells (CD8_T11.8-10-17) with a panel of HLA-A*02:01 positive, NY-ESO-1/LAGE-1 positive human tumor cell lines (Me1624.38, FM6, FM3.29, MM415, SAOS2, U266). NY-ESO-1/LAGE-1 expression in the target cells was detected by NanoString nCounter® analysis. As positive control for T11.8-10-17-transduced T cells, T2 cells were loaded with SLL-peptide (10^−5 M). As negative controls for the effector function, T11.8-10-17-transduced T cells were co-cultured with T2 cells loaded with irrelevant (FTV) peptide (10^−5M), SK-Me123 (HLA-A2pos, NY-ESO-1/LAGE-1neg) or SKM1 (HLA-A2pos, NY-ESO-1/LAGE-1neg), or untransduced T cells were co-cultured with tumor cells or peptide-loaded T2 cells. Cultivation of target cells without effector cells served as an additional negative control. Target cells were co-cultured with T cells at a ratio of 2:1 using 40,000 T11.8-10-17-transduced T cells and 20,000 target cells. (FIG. 3).

FM3.29 = experiment: IFN-γ ELISA, stimulation by tumor cell lines; settings: transduced CD8+ T cells 40,000, target cells 20,000
Source text: as §2

FM6 = experiment: IFN-γ ELISA, stimulation by tumor cell lines; settings: transduced CD8+ T cells 40,000, target cells 20,000
Source text: as §2

U266 = experiment: IFN-γ ELISA, stimulation by tumor cell lines; settings: transduced CD8+ T cells 40,000, target cells 20,000
Source text: as §2

SAOS2 = experiment: IFN-γ ELISA, stimulation by tumor cell lines; settings: transduced CD8+ T cells 40,000, target cells 20,000
Source text: as §2

[4] = tested on: SK-Me123 (HLA-A2pos, NY-ESO-1/LAGE-1neg); experiment: IFN-γ ELISA, stimulation by tumor cell lines; settings: antigen-negative line; transduced CD8+ T cells 40,000, target cells 20,000
Source text: as §2

[5] = tested on: SKM1 (HLA-A2pos, NY-ESO-1/LAGE-1neg); experiment: IFN-γ ELISA, stimulation by tumor cell lines; settings: antigen-negative line; transduced CD8+ T cells 40,000, target cells 20,000
Source text: as §2

Me1624.38 = experiment: IFN-γ ELISA, stimulation by tumor cell lines; settings: transduced CD8+ T cells 40,000, target cells 20,000
Source text: as §2

[6] = tested on: T2 cells loaded with NY-ESO-1/LAGE-1157-165 (SLL) peptide (T2(SLL)); experiment: Secretion of MIP-1α and MIP-1β, multiplex assay (Milliplex MAP Kit); settings: T2(SLL) 10^−5 M; ratio 1:1, 10 000 cells each; 18 hours; two donors; compared with the other TCR
Procedure: As negative control, T11.8-10-17- or benchmark-transgenic CD8^+ T cells were stimulated with HLA-A*02:01 positive FTV-loaded T2 cells or untransduced CD8^+ enriched PBMC (CD8_ut) were co-cultured with peptide-loaded T2 cells. Furthermore, T2 cells or T cells were cultured separately.
Target cells and T cells were co-cultured at a ratio of 1:1 using 10 000 target cells and 10 000 T11.8-10-17- or benchmark-TCR-transduced T cells. Secretion of MIP-1α and MIP-1β by either T11.8-10-17- or benchmark-transgenic CD8^+ T cells was determined 18 hours after setting up the co-culture by multiplex assay using the Milliplex MAP Kit and analyzed by the MagPix analyzer.

peptide-loaded T2 cells [7] = experiment: IFN-γ ELISA, peptide-loaded T2 controls of the tumor cell line panel
Source text: as §2

peptide-loaded T2 cells [8] = experiment: Recognition of mismatched epitopes: IFN-γ ELISA with peptide-loaded T2 cells; settings: ratio 1:1
Procedure: As a negative control, untransduced CD8^+ enriched PBMC (CD8_UT) were used as effector cells or TCR-transgenic T cells were stimulated with irrelevant (irr.; […]) peptide-loaded T2 cells (10^−5 M). Background IFN-γ secretion of target cells was also tested (targets only). As a positive control T cells were activated by SLL peptide (#10*)-loaded T2 cells (10^−5 M). […] IFN-γ secretion was measured by standard ELISA in [pg/mL].

[9] = tested on: HLA-A*02:01-transgenic K562 cells; experiment: Recognition of ivtRNA mismatched epitopes: IFN-γ ELISA with HLA-A*02:01-transgenic K562 cells; settings: 16 hours
Procedure: For this experiment, 3×10^6 K562 cells in 300 μl RPMI1640 medium were electroporated with 20 μg either NY-ESO-1 or eGFP-ivtRNA (300 Volt and 300 μF; exponential pulse). As positive control, T cells were stimulated with HLA-A*02:01-transgenic K562 cells loaded with either the SLL-peptide (10^−5M) (K562-A2+SLL) or with 20 μg ivtRNA encoding NY-ESO-1 (K562-A2+NY-ESO-1). As a negative control HLA-A*02:01-transgenic K562 were either loaded with irrelevant peptide (10^−5M; K562-A2+FTV) or with 20 μg ivtRNA encoding eGFP (K562-A2+eGFP).

B1: T11.8-10-17: TCR of T cell clone T11.8-10-17 specific for NY-ESO-1/LAGE-1157-165 on HLA-A*02:01; variable α SEQ ID NO: 10, variable β SEQ ID NO: 11 (protein, listed as Homo sapiens)
alpha: MKSLRVLLVILWLQLSWVWSQQKEVEQNSGPLSVPEGAIASLNCTYSDRGSQSFFWYRQYSGKSPELIMFIYSNGDKEDGRFTAQLNKASQYVSLLIRDSQPSDSATYLCAADDKIIFGKGTRLHILPN
beta: MGSWTLCCVSLCILVAKHTDAGVIQSPRHEVTEMGQEVTLRCKPISGHDYLFWYRQTMMRGLELLIYFNNNVPIDDSGMPEDRFSAKMPNASFSTLKIQPSEPRDSAVYFCASSRGGSGYTFGSGTRLTVVE
[1]
  start of increase of red fluorescence (killing): 10 h
[1]; 67 hours
  killing of target cells (increase of red fluorescence, Annexin V): showed killing
[2]
  start of increase of red fluorescence (killing): 10 h
[2]; 67 hours
  killing of target cells (increase of red fluorescence, Annexin V): showed killing
[3]
  killing of target cells (increase of red fluorescence, Annexin V): no increase of red fluorescence was observed
MM415
  IFN-γ secretion: high amounts of IFN-γ secretion
FM3.29
  IFN-γ secretion: high amounts of IFN-γ secretion
FM6
  IFN-γ secretion: high amounts of IFN-γ secretion
U266
  IFN-γ secretion: high amounts of IFN-γ secretion
SAOS2
  IFN-γ secretion: high amounts of IFN-γ secretion
[4]
  recognition (IFN-γ secretion): no recognition
[5]
  recognition (IFN-γ secretion): no recognition
Me1624.38
  IFN-γ secretion: high amounts of IFN-γ secretion
[6]
  MIP-1α secretion: markedly lower amounts
  MIP-1β secretion: markedly lower amounts
peptide-loaded T2 cells [7]; T2 cells loaded with SLL-peptide (10^−5 M)
  IFN-γ secretion: high amounts of IFN-γ secretion
peptide-loaded T2 cells [7]; T2 cells loaded with irrelevant (FTV) peptide (10^−5 M)
  recognition (IFN-γ secretion): no recognition
peptide-loaded T2 cells [8]; T2 + irrelevant peptide (FTVSGNILTI) 10^−5 M
  peptide recognition (IFN-γ secretion): not the irrelevant peptide
peptide-loaded T2 cells [8]; T2 + peptide #3 10^−5 M
  cross-recognition (IFN-γ secretion): cross-recognized
peptide-loaded T2 cells [8]; T2 + peptide #6 10^−5 M
  cross-recognition (IFN-γ secretion): slightly activated
peptide-loaded T2 cells [8]; T2 + peptide #11 10^−5 M
  cross-recognition (IFN-γ secretion): slightly activated
peptide-loaded T2 cells [8]; T2 + peptide #32 10^−5 M
  cross-recognition (IFN-γ secretion): slightly activated
peptide-loaded T2 cells [8]; T2 + peptide #34 10^−5 M
  cross-recognition (IFN-γ secretion): slightly activated
peptide-loaded T2 cells [8]; T2 + peptide #51 10^−5 M
  cross-recognition (IFN-γ secretion): slightly activated
peptide-loaded T2 cells [8]; T2 + positive control peptide SLL (SLLMWITQC) 10^−5 M
  peptide recognition (IFN-γ secretion): recognized
[9]; K562-A2+#3, ivtRNA long peptide
  cross-recognition of internally processed peptide (IFN-γ release): no cross-recognition
[9]; K562-A2+#6, ivtRNA long peptide
  cross-recognition of internally processed peptide (IFN-γ release): no cross-recognition
[9]; K562-A2+#11, ivtRNA long peptide
  cross-recognition of internally processed peptide (IFN-γ release): no cross-recognition
[9]; K562-A2+#32, ivtRNA long peptide
  cross-recognition of internally processed peptide (IFN-γ release): no cross-recognition
[9]; K562-A2+#34, ivtRNA long peptide
  cross-recognition of internally processed peptide (IFN-γ release): no cross-recognition
[9]; K562-A2+#51, ivtRNA long peptide
  cross-recognition of internally processed peptide (IFN-γ release): no cross-recognition
[9]; K562-A2+NYESO, NY-ESO-1-ivtRNA transfected
  recognition (IFN-γ release): recognized
[9]; K562-A2+SLL, peptide-loaded 10^−5 M, target:T cell 2:1
  recognition (IFN-γ release): recognized
[9]; K562-A2+eGFP ivtRNA
  recognition (IFN-γ release): did not recognize
[9]; K562-A2+irr., irrelevant peptide 10^−5 M
  recognition (IFN-γ release): did not recognize
